Laboratory results as given in US20080249006A1, “Pharmaceutical Preparation for the Treatment of Shock” (FIBREX MEDICAL RESEARCH & DEVELOPMENT GESMBH, priority 2004, published 2008).

Columns and labels:
VE-cadherin = target: T1, VE-cadherin (Homo sapiens, UniProt P33151); test: Competition ELISA: inhibition of FLAG-tagged Bbeta15-42 binding to VE-cadherin; conditions: FLAG-tagged Bbeta15-42 12 μM
T1 construct: Fc (immunoglobulin Fc fusion partner); purchased R&D Systems, Minneapolis
Source text: (§1) We have developed a modified ELISA working with the same principles described by others, but the purpose of the herein described ELISA is not to quantify fibrin degradation products, but to search for proteins, peptides or compounds which interfere with the binding of the Bbeta15-42 sequence and the VE-cadherin. […] Into this system one can introduce any other additional substance and measure if this substance inhibits VE-cadherin/Bbeta15-42 binding.
(§2) In detail, 96 well protein immobilizer plates (Exiqon, Vedbaek, D K) were coated with recombinant human VE-cadherin FC fusion protein (8 nM/ml; R&D Systems, Minneapolis) in PBS and were left overnight at 4° C. Plates were then washed and incubated with peptide Bβ15-42 ([…]) tagged with a FLAG-sequence (DYKDDDDK) at the C-terminus of the peptide or with a FLAG-tagged random peptide ([…]) at a concentration of 0-80 μMol. After washing, bound FLAG-tagged peptide was detected by incubation with a peroxidase-labelled anti-FLAG antibody (Sigma, St. Louis, USA) and chromogenic substrate. Optical density was determined by an ELISA plate reader set at a wavelength of 450 nm. Data represent the mean of three independent experiments, each performed in triplicates.
In a next step, we analyzed whether this ELISA can be used to screen for other peptides/compounds to compete with the binding of the Bβ15-42 sequence to VE-cadherin.
VE-cadherin was coated to the plastic surface at a concentration of 8 nM. Then indicated peptides were added at concentrations of 200 μM, NDSK or NDSK-II were added at indicated concentrations. Detection of binding of the FLAG-tagged Bbeta15-42 (12 μM) was performed as described above.

[1] = target: T2, recombinant human VE-cadherin FC fusion protein (Homo sapiens, UniProt P33151); test: ELISA: binding of FLAG-tagged peptide to coated VE-cadherin
T2 construct: Fc (immunoglobulin Fc fusion partner); purchased R&D Systems, Minneapolis
Source text: as §1, §2

[2] = blocking reagent 200 μM, VE-cadherin 8 nM

T2 sequence (P33151 with tags, fused parts or gaps limits assumed): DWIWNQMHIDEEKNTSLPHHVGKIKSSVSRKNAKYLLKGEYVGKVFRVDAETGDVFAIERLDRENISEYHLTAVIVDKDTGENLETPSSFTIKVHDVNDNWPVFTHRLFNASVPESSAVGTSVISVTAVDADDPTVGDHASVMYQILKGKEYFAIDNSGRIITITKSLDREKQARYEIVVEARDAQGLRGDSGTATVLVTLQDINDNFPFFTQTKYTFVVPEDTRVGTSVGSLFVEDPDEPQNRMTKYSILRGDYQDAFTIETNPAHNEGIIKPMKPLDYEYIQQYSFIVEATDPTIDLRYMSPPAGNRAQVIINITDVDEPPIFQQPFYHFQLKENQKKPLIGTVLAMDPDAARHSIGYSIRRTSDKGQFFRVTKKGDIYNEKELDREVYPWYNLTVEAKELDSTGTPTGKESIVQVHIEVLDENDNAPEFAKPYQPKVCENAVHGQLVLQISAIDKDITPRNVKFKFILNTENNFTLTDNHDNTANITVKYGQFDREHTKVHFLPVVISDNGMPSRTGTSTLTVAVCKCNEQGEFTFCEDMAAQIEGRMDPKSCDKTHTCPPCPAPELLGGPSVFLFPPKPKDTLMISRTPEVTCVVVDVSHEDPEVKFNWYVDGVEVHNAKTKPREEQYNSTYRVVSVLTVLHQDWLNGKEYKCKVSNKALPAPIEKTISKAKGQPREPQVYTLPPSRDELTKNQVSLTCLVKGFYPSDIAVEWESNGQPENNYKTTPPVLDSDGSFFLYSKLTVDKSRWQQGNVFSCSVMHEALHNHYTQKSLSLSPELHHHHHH
T1 sequence (P33151 with tags, fused parts or gaps limits assumed): as above

Substance	% inhibition of 15-42FLAG-binding to VE-cadherin mean ± SD (VE-cadherin; blocking reagent 12 μM) [%]	% inhibition of 15-42FLAG-binding to VE-cadherin mean ± SD (VE-cadherin; [2]) [%]	also measured
peptide 15-26 (12mer): shorter peptide, amino acids 15-26 of the fibrin Bβ chain	6 ± 1	64 ± 10	–
peptide 15-34 (20mer): shorter peptide, amino acids 15-34 of the fibrin Bβ chain	7 ± 1	67 ± 17	–
peptide 15-18 (4mer): shorter peptide, amino acids 15-18 of the fibrin Bβ chain	7 ± 2	65 ± 12	–
peptide 16-42 (27mer): shorter peptide, amino acids 16-42 of the fibrin Bβ chain	5 ± 2	55 ± 13	–
15-42 FLAG: peptide Bβ15-42 (GHRPLDKKREEAPSLRPAPPPISGGGYR) tagged with a FLAG-sequence (DYKDDDDK) at the C-terminus (GHRPLDKKREEAPSLRPAPPPISGGGYRDYKDDDDK)	–	–	Binding to VE-cadherin, optical density at 450 nm (mean) ([1]; FLAG-tagged peptide 0 μM): 0; Binding to VE-cadherin, optical density at 450 nm (mean) ([1]; FLAG-tagged peptide 0.23 μM): 0.01; Binding to VE-cadherin, optical density at 450 nm (mean) ([1]; FLAG-tagged peptide 0.7 μM): 0.02; Binding to VE-cadherin, optical density at 450 nm (mean) ([1]; FLAG-tagged peptide 2.3 μM): 0.08; Binding to VE-cadherin, optical density at 450 nm (mean) ([1]; FLAG-tagged peptide 7 μM): 0.33; Binding to VE-cadherin, optical density at 450 nm (mean) ([1]; FLAG-tagged peptide 14 μM): 0.92; Binding to VE-cadherin, optical density at 450 nm (mean) ([1]; FLAG-tagged peptide 21 μM): 1.3; Binding to VE-cadherin, optical density at 450 nm (mean) ([1]; FLAG-tagged peptide 35 μM): 1.5; Binding to VE-cadherin, optical density at 450 nm (mean) ([1]; FLAG-tagged peptide 46 μM): 1.93; Binding to VE-cadherin, optical density at 450 nm (mean) ([1]; FLAG-tagged peptide 70 μM): 2.1
peptide 15-37 (24mer): shorter peptide, amino acids 15-37 of the fibrin Bβ chain	7 ± 2	17 ± 19	–
peptide 15-30 (16mer): shorter peptide, amino acids 15-30 of the fibrin Bβ chain	6 ± 3	61 ± 13	–
